Experimental data taken from patent US20150004162A1.

Biological target: human DR5 (human) (UniProt O14763)
Experiment: ELISA, half-log dilutions on wells coated with 1 microgram/ml human DR5, anti-mouse polyclonal antibody-HRP

Chain of human DR5 (human) (O14763 other isoform, or with tags, fused parts or gaps limits assumed): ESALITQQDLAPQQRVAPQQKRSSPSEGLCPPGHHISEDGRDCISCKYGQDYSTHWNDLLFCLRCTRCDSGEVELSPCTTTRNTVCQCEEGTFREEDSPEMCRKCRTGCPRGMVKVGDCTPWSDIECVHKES

EC50: 0.0651 nM
Substance: MAB631 (antibody)
